Source: patent US20180265572A1 (Bristol-Myers Squibb, published 2018)
Values joined by “and” are separate entries in the source; they are usually repeats but may differ in a detail not shown here. Equal values may be shown once. Values belong to the binder of their own block, whether it stands above or below them.

Tests used:
human IGF-IR-Fc fusion [1] = molecular target: T1, human IGF-IR-Fc fusion (human, UniProt P08069 31-932); test: SPR (Biacore), IGF-IR-Fc captured on Protein A
T1 construct: range 1-932; If it counts on the precursor, it includes the signal peptide; also called IGF1R-Fc; not shown: hinge and constant regions of human IgG
T1 sequence (P08069 31-932 limits assumed, form in doubt): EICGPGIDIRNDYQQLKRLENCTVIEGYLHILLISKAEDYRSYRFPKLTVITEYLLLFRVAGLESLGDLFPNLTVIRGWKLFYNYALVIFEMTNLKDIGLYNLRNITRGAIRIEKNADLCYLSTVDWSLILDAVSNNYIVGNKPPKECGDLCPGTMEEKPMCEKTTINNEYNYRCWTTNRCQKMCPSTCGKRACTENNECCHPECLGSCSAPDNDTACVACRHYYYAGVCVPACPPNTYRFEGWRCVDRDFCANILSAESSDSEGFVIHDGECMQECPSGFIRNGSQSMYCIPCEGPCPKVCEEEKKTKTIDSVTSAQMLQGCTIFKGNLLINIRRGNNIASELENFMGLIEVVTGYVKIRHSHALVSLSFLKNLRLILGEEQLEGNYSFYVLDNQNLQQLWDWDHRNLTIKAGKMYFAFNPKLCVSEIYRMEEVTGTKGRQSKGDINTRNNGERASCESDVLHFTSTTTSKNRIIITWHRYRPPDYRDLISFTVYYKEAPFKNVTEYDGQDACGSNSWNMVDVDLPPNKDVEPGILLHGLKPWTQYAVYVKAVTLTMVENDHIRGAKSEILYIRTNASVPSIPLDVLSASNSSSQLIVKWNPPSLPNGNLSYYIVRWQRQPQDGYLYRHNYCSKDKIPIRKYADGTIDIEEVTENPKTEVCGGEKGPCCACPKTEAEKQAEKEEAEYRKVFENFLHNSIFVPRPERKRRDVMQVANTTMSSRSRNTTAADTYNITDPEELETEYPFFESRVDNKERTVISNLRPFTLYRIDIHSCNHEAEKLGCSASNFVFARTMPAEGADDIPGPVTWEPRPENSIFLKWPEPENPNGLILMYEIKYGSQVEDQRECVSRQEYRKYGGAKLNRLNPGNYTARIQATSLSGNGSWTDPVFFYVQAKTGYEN
From the text: (§1) An alternative method is to capture the IGF—IR-Fc on Protein A. This method was used for calculating the affinity and kinetics of certain versions of the construct 385A08-Fn-V2B-cys (both pegylated and non-pegylated and with or without his tag) from midscale and large scale materials. Specifically, IGF—IR-Fc was captured on Protein A immobilized on a Biacore CM5 sensor chip by amine coupling. VEGFR2-Fc was immobilized directly on a CM5 chip by amine coupling. The affinity and kinetic analysis involved the capture of IGF—IR-Fc on Protein A followed by injection of the tandem adnectin in solution over IGF—IR-Fc and VEGFR2-Fc. The analytical surface was regenerated between samples with glycine pH 1.5. Sensorgrams were obtained at each concentration and were evaluated using Biacore T100 evaluation software to determine the rate constants kₐ (kₒₙ) and kd (koff).

human IGF-IR-Fc fusion [2] = molecular target: T1, human IGF-IR-Fc fusion; test: SPR (Biacore), captured IGF1R-Fc, midscale purified binder
[3] = molecular target: VEGFR-2 in nude mice (in vivo) (UniProt P35918 20-1345, limits assumed); test: cell-based or functional assay
Chain of VEGFR-2 in nude mice (in vivo) (P35918 20-1345 limits assumed): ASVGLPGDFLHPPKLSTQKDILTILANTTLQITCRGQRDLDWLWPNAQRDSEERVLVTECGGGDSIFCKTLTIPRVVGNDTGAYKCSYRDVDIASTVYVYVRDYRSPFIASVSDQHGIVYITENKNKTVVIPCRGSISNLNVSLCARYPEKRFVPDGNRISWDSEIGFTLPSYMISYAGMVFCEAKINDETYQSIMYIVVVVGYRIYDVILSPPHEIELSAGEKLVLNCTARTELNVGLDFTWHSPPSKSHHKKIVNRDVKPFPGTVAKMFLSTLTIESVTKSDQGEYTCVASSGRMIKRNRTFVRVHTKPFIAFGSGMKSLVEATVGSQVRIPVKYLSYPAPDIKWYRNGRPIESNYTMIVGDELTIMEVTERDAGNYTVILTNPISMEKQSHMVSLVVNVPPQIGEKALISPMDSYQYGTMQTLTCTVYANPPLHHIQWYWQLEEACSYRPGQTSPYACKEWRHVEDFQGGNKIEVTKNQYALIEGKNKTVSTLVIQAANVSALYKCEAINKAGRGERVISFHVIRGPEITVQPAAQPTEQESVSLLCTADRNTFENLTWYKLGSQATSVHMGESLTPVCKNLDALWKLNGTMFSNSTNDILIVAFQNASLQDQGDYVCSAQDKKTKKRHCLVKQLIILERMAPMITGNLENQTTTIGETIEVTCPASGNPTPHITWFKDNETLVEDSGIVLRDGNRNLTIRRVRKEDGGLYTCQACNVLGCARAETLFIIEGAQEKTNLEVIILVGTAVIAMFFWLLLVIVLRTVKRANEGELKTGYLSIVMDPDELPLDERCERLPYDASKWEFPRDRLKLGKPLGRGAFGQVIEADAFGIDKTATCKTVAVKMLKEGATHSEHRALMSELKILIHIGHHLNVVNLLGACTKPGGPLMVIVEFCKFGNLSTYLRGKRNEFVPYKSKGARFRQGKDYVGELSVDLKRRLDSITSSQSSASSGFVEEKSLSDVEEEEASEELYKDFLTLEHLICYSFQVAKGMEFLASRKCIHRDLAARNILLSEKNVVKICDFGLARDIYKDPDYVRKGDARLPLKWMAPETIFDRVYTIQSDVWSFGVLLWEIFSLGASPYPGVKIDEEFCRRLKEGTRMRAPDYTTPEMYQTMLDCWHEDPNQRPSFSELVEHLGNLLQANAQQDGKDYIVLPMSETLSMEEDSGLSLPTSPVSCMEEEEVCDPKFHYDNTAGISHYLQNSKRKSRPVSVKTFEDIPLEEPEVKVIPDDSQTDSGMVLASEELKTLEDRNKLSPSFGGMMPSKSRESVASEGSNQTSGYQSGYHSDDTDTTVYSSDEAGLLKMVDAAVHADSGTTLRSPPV

[4] = molecular target: VEGFR-2 in cynomolgus monkeys (in vivo); test: cell-based or functional assay
human IGF-IR-Fc fusion [5] = molecular target: T1, human IGF-IR-Fc fusion; test: SPR (Biacore), IGF1R-Fc captured on Protein A
Method: (§2) Affinity data was also measured from midscale and large scale material, for the pegylated version of the tandem construct 385A08-Fn-V2B-cys (SEQ ID NO: 9, with and without his tag). The specific materials and methods for these calculations are described below.
as §1

VEGFR2-Fc (R&D Systems) [6] = molecular target: T2, VEGFR2-Fc (R&D Systems) (UniProt P35968 20-764); test: SPR (Biacore), VEGFR2-Fc immobilized directly on the chip
T2 construct: Bought reagent; not shown: Fc part of the bought fusion; not described
T2 sequence (P35968 20-764 limits assumed): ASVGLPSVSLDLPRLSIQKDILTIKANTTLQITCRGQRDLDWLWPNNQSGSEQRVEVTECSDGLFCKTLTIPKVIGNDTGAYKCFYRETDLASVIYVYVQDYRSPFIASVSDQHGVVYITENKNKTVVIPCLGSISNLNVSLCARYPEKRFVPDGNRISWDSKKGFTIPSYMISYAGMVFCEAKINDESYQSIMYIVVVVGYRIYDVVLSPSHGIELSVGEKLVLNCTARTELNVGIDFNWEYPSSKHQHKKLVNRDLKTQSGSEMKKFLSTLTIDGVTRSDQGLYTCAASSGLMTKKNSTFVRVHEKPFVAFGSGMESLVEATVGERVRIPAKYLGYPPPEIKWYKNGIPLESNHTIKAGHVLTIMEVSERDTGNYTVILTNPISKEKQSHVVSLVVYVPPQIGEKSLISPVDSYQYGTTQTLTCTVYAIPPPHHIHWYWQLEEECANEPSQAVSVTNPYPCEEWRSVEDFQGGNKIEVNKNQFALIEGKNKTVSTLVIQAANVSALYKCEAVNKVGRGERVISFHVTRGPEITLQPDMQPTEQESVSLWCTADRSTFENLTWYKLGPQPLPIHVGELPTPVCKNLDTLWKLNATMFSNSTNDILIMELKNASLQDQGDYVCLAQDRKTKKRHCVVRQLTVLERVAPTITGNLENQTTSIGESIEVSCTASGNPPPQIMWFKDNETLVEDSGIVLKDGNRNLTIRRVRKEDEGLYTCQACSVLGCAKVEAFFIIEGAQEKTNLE
Method: as §2, §1
The functionality of the V2B domain was assessed by evaluating a concentration series of the midscale and large scale purification of the tandem construct 385A08-Fn-V2B (pegylated, and non-pegylated versions, his-tag and non-his-tag versions) vs. VEGFR2-Fc that was directly immobilized on a CM5 chip surface (GE, Piscataway, N.J.). VEGFR2-Fc (R&D Systems, MN) was diluted to 12 ug/mL in 50 mM Acetate pH 5.0 for an immobilization level of ˜1300 RU. Varying concentrations of 385A08-Fn-V2B in the solution phase were monitored for association (2 minutes) and dissociation (10 minutes) kinetics at a flow rate of 50 uL/min. Two 30 second injections of 50 mM glycine pH 1.7 were used to regenerate the surface.

[7] = molecular target: T3, VEGFR-2 (KDR) on transfected cells (UniProt P35968 20-1356, limits assumed); test: competitive blocking assay on 293:KDR cells; ratio of the IC50 values
T3 construct: whole, on cells; also called Flk-1
T3 sequence (P35968 20-1356 limits assumed): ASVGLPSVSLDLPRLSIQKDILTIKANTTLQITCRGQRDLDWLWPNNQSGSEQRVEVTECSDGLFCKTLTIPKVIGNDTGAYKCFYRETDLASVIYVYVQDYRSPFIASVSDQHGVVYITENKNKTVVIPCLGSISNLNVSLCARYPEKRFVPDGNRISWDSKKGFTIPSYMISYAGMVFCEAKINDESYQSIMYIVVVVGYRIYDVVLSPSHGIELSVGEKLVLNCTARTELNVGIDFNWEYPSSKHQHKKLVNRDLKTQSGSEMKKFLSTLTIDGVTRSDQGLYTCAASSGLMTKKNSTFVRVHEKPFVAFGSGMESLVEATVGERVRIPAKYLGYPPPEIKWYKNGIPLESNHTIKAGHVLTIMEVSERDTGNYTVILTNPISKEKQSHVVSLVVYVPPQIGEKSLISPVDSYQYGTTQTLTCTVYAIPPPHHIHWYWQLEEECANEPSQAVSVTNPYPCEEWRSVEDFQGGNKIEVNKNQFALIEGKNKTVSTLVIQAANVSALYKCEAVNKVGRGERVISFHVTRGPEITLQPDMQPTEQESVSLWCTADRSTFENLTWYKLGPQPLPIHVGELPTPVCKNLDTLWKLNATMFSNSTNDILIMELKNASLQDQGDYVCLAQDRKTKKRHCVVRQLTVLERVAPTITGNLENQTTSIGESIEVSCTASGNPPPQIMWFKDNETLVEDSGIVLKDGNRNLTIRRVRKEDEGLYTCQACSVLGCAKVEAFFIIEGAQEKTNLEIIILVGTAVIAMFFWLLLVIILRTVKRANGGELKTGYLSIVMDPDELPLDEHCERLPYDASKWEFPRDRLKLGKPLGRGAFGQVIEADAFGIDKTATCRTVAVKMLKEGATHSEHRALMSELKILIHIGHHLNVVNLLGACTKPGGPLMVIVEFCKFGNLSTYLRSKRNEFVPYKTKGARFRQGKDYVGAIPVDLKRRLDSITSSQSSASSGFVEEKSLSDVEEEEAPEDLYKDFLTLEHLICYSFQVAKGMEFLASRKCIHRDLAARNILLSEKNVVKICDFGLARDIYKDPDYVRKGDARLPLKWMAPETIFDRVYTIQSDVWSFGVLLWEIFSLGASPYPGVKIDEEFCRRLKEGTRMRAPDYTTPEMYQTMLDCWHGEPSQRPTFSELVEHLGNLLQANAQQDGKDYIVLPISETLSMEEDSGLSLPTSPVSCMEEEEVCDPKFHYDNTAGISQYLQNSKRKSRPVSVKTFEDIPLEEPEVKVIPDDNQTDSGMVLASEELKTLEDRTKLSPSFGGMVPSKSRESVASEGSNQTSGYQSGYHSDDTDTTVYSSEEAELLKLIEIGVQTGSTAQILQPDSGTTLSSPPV
Method: (§3) Similarly, the pegylated, his-tagged construct 385A08-Fn-V2B-cys was able to block the interaction of a mono-specific ¹⁰Fn3-based VEGFR-2 binder (Peg-V2Bshort, SEQ ID NO: 28) with VEGFR-2 present on 293:KDR cells. […] In particular, in a Ba/F3 assay (described below), the IC₅₀ for the monomeric, non-pegylated VEGFR2 binder V2Bshort (SEQ ID NO: 28) is approximately 0.1-3 nM whereas the IC₅₀ for the monomeric, non-pegylated VEGFR2 binder having SEQ ID NO: 44 (e.g., with an N-terminal extension) is approximately 8-13 nM. […] Both the R⁺ and 293:KDR cell based competitive blocking assays are described in detail in the materials and methods section below.
(§4) 293:KDR (Sibtech, Brookfield, Conn.) were plated in 96 well plates at a concentration of 25,000 cells per well in DMEM (Invitrogen, Carlsbad, Calif.) containing 10% fetal bovine serum (Hyclone, Logan, Utah). The following day, cells were washed twice in serum free DMEM containing 0.1% BSA (Invitrogen, Carlsbad, Calif.). After the washes, the cells were incubated at 4° C. for 10 minutes in binding buffer (serum free DMEM+0.1% BSA) containing increasing concentrations of VEGFR-2 antagonists or controls. Typical controls included the mono-specific ¹⁰Fn3-based VEGFR2 binder (Peg-V2Bshort, SEQ ID NO: 28) (positive control) or the mono-specific ¹⁰Fn3-based IGF-IR binder (AT580-PEG40, SEQ ID NO: 27) (negative control). […]

[8] = molecular target: T3, VEGFR-2 (KDR) on transfected cells; test: competitive blocking assay on 293:KDR cells; competitor 200 nM IRDye 800CW-labelled Peg-V2Bshort
Method: as §3, §4

VEGFR2-Fc (R&D Systems) [9] = molecular target: T2, VEGFR2-Fc (R&D Systems); test: SPR (Biacore), immobilized VEGFR2-Fc, midscale purified binder
human IGF-IR on cells = molecular target: T4, human IGF-IR on cells (human, UniProt P08069 31-1367); test: competitive blocking assay on R+ cells overexpressing human IGF-IR; competitor 200 nM IRDye 800CW-labelled AT580-PEG20-AT580
T4 construct: whole, on cells; also called cell surface IGF-IR
Method: Certain tandem constructs were evaluated for their ability to compete with mono-specific IGF-IR and VEGFR-2 binders in vitro.
R⁺, a gift from Renato Baserga (Thomas Jefferson University, Philadelphia, Pa.), is a mouse embryo fibroblast overexpressing human IGF-IR in the context of a deletion in the mouse IGF-IR gene. Cells were plated in 96 well plates at a concentration of 20,000 cells per well in DMEM (Invitrogen, Carlsbad, Calif.) containing 5% calf serum (Hyclone, Logan, Utah). The following day, cells were washed twice in serum free DMEM containing 0.1% BSA (Invitrogen, Carlsbad, Calif.). After the washes, the cells were incubated at 4° C. for 10 minutes in binding buffer (serum free DMEM+0.1% BSA) containing increasing concentrations of IGF-IR antagonists or controls. Typical controls included the mono-specific ¹⁰Fn3-based IGF-IR binder (AT580-PEG40, SEQ ID NO: 27) (positive control) or the mono-specific ¹⁰Fn3-based VEGFR2 binder (Peg-V2Bshort, SEQ ID NO: 28) (negative control). Following this brief exposure to antagonists, R⁺ cells were additionally exposed to 200 nM of a bi-valent ¹⁰Fn3-based IGF-IR binder (AT580-PEG20-AT580, SEQ ID NO: 27) labeled with IRDye 800CW according to the manufacturer instructions (Li-Cor Biosciences, Lincoln, Nebr.). […] The resulting data was analyzed using GraphPad Prism (GraphPad Software, La Jolla, Calif.).

VEGFR2-Fc (R&D Systems) [10] = molecular target: T2, VEGFR2-Fc (R&D Systems); test: SPR (Biacore), VEGFR2-Fc immobilised directly on a CM5 chip
mouse IGF1R = mouse IGF1R (mouse, UniProt Q60751 31-933, limits assumed); test: method not stated; mouse IGF1R
monkey IGF1R = monkey IGF1R (monkey); test: method not stated
human IGF1R = human IGF1R (human, UniProt P08069 31-932, limits assumed); test: method not stated; human IGF1R
Chain of human IGF1R (P08069 31-932 limits assumed): as the sequence (P08069 31-932 limits assumed, form in doubt) above

rat IGF1R = rat IGF1R (rat, UniProt P24062 31-933, limits assumed); test: method not stated; rat IGF1R

Kd (human IGF-IR-Fc fusion [1]): 1.2 nM | koff (human IGF-IR-Fc fusion [2]): 0.000233 s⁻¹ | kon (human IGF-IR-Fc fusion [2]): 200000 M⁻¹ s⁻¹ | plasma IC50, indirect-response PD model, nude mice bearing the Rh41 tumor [3]: 13800 nM | plasma IC50 (grand mean), PK/PD model, monkeys [4]: 228 nM | Kd (human IGF-IR-Fc fusion [5]): 0.831 nM and 0.465 nM and 0.857 nM | koff (human IGF-IR-Fc fusion [5]): 0.00025 s⁻¹ and 0.000223 s⁻¹ and 0.000238 s⁻¹ | kon (human IGF-IR-Fc fusion [5]): 299000 M⁻¹ s⁻¹ and 480000 M⁻¹ s⁻¹ and 277000 M⁻¹ s⁻¹ | Kd (VEGFR2-Fc (R&D Systems) [6]): 11 nM and 5.96 nM and 12.6 nM | koff (VEGFR2-Fc (R&D Systems) [6]): 9.5e-05 s⁻¹ (2×) and 0.00013 s⁻¹ | kon (VEGFR2-Fc (R&D Systems) [6]): 8600 M⁻¹ s⁻¹ and 21800 M⁻¹ s⁻¹ and 7530 M⁻¹ s⁻¹ | fold difference in activity against Peg-V2Bshort [7]: 7 fold | IC50 [8]: ~140 nM | koff (VEGFR2-Fc (R&D Systems) [9]): 0.000149 s⁻¹ | kon (VEGFR2-Fc (R&D Systems) [9]): 10600 M⁻¹ s⁻¹ | IC50 (human IGF-IR on cells): 900 nM | Kd (VEGFR2-Fc (R&D Systems) [10]): 14 nM
B1: pegylated, his-tagged 385A08-Fn-V2B-cys (designed binder)
chain: MGVSDVPRDLEVVAATPTSLLISWSARLKVARYYRITYGETGGNSPVQEFTVPKNVYTATISGLKPGVDYTITVYAVTRFRDYQPISINYRTEIDKPSTSTSTVSDVPRDLEVVAATPTSLLISWRHPHFPTRYYRITYGETGGNSPVQEFTVPLQPPTATISGLKPGVDYTITVYAVTDGRNGRLLSIPISINYRTEIDKPCQHHHHHH
modifications: 40 kD PEG on the single cysteine at position 203 (linear PEG in paragraph 246; type of PEG not stated in Example 6)
notes: also called 385A08-Fn-V2B-cys (with PEG and his-tag); linear pegylated, his-tagged 385A08-Fn-V2B-cys

Kd (mouse IGF1R): 86 nM | Kd (monkey IGF1R): 0.213 nM | Kd (human IGF1R): 0.277 nM | Kd (rat IGF1R): 92 nM
B2: 385A08-Fn-V2B-cys (with Peg) (designed binder)
chain: MGVSDVPRDLEVVAATPTSLLISWSARLKVARYYRITYGETGGNSPVQEFTVPKNVYTATISGLKPGVDYTITVYAVTRFRDYQPISINYRTEIDKPSTSTSTVSDVPRDLEVVAATPTSLLISWRHPHFPTRYYRITYGETGGNSPVQEFTVPLQPPTATISGLKPGVDYTITVYAVTDGRNGRLLSIPISINYRTEIDKPCQ
modifications: PEG on the single cysteine at position 203
